Patent publication US20100015129A1

Experiments:
[1] = target: integrin αvβ3 on chick embryo sternal chondrocytes (chick) (UniProt P26008); assay: cell-based or functional assay
[2] = target: latent TGF-β1 released by human OA cartilage explants (human) (UniProt P01137); assay: cell-based or functional assay
latent TGF-β1 released by human OA cartilage explants (human), sequence (P01137 30-390 limits assumed): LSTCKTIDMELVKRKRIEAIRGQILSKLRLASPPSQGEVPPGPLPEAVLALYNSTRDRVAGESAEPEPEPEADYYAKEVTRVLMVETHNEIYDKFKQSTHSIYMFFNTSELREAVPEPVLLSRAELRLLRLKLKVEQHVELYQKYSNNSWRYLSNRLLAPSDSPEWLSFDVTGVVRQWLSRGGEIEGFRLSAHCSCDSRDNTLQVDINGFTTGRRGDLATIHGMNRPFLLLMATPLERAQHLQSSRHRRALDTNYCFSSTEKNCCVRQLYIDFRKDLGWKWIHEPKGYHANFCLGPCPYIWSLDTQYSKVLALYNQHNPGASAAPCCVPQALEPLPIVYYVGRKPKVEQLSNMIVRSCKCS

integrin αvβ3 on chick embryo sternal chondrocytes (chick), sequence (P26008 20-1034): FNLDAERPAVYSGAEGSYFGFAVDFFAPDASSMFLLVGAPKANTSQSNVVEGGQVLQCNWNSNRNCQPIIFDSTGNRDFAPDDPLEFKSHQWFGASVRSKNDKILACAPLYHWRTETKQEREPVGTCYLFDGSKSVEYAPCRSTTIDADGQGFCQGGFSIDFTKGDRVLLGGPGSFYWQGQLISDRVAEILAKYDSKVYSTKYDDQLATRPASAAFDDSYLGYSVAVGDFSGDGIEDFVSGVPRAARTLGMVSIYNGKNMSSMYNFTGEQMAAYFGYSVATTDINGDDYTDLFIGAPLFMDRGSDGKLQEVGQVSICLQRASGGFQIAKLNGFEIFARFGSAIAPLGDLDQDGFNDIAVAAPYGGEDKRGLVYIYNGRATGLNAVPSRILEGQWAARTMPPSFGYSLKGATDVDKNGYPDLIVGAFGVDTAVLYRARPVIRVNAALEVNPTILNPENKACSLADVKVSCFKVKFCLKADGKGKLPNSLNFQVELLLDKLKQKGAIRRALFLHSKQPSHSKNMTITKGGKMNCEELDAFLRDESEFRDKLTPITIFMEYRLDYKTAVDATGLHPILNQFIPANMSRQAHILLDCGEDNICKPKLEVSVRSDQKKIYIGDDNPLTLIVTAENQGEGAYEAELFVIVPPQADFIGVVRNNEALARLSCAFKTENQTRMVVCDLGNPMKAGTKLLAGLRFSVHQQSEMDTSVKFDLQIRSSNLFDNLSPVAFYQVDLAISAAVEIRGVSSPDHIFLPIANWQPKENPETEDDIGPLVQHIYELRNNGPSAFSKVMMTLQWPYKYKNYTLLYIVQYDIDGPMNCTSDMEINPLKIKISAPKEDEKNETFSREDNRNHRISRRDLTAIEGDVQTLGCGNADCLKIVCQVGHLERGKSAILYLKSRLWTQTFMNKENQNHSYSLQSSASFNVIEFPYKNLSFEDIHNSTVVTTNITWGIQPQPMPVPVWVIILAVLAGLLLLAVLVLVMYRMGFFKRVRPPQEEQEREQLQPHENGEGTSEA

| decrease in AP activity of F-spondin transfected, RA stimulated chick chondrocytes [1] | active TGF-β1 in OA cartilage explant supernatants (ELISA) [2] | active TGF-β1 in OA cartilage explant supernatants (ELISA) (pg/g cartilage) [2] | Substance |
| --- | --- | --- | --- |
| 50% | – | – | LM609, integrin αvβ3 blocking antibody (Chemicon International, Cat No MAB1976Z) |
| – | 225% | 550 | recombinant human F-spondin (R&D systems) (from UniProt Q9HCB6 29-807) (ligand) |
